Values quoted from earlier work as cited in article doi:10.1101/2022.08.17.503475.

Molecular target: Glu14 (UniProt position 14, GAILAEVIGTT)
Assay: NMR
Conditions: TPP+-bound; alternating access in slow exchange throughout the tested pH range

## EmrE (multidrug transporter EmrE, small multidrug resistance family) (Escherichia coli)
  pKa: 6.8 ± 0.1
